Experiments:
[1] = molecular target: T1, THAP1ΔQRCRR mutant (deletion of residues 168-172) (human, UniProt Q9NVV9 1-213); assay: yeast two-hybrid and in vivo interaction assay
T1 sequence: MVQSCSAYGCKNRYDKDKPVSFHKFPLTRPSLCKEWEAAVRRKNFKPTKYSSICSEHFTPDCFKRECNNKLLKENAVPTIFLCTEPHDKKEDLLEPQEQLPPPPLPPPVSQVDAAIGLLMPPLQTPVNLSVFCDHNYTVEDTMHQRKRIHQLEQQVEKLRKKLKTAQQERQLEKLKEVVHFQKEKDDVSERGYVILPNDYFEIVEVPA

[2] = molecular target: T2, THAP1-N3 deletion mutant (amino acids 1-192) (human, UniProt Q9NVV9 1-192); assay: in vivo interaction test: GFP-THAP1 mutant and myc-Par4DD co-expressed in primary human endothelial cells, confocal immunofluorescence
T2 construct: Gal4 fusion, in vitro translation product or GFP fusion according to assay
T2 sequence: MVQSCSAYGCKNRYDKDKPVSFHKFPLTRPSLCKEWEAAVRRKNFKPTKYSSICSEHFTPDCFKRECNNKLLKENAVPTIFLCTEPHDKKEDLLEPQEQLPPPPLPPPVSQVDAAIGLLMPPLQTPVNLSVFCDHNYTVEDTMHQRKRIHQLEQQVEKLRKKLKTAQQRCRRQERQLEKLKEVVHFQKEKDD
From the text: (§1) To provide further evidence for a physiological interaction between THAP1 and Par4 in vivo interactions between THAP1 and PAR4 were investigated. For that purpose, confocal immunofluorescence microscopy was used to analyze the subcellular localization of epitope-tagged Par4DD in primary human endothelial cells transiently cotransfected with pEF-mycPar4DD eukaryotic expression vector and GFP or GFP-THAP1 expression vectors (pEGFP.C2 and pEGFP.C2-THAP1, respectively). To generate pEF-mycPar4DD, mycPar4DD (amino acids 250-342) was amplified by PCR using pGBKT7-Par4DD as template, with primers myc.BD7 (5′-[…]-3′) (SEQ ID NO: 195) and Par4.9 (5′-[…]-3′) (SEQ ID NO: 196), and cloned into the XbaI and NotI sites of the pEF-BOS expression vector (Mizushima and Nagata, Nucleic Acids Research, 18:5322, 1990). Primary human endothelial cells from umbilical vein (HUVEC, PromoCell, Heidelberg, Germany) were grown in complete ECGM medium (PromoCell, Heidelberg, Germany), plated on coverslips and transiently transfected in RPMI medium using GeneJammer transfection reagent according to manufacturer instructions (Stratagene, La Jolla, Calif., USA). Cells co-transfected with pEF-mycPar4DD and GFP-tagged expression constructs were allowed to grow for 24 h to 48 h on coverslips. Cells were washed twice with PBS, fixed for 15 min at room temperature in PBS containing 3.7% formaldehyde, and washed again with PBS prior to neutralization with 50 mM NH₄Cl in PBS for 5 min at room temperature. Following one more PBS wash, cells were permeabilized 5 min at room temperature in PBS containing 0.1% Triton-X100, and washed again with PBS. Permeabilized cells were then blocked with PBS-BSA (PBS with 1% bovine serum albumin) for 10′ and then incubated 2 hr at room temperature with mouse monoclonal antibody anti-myc epitope (mouse IgG1, 1/200, Clontech) diluted in PBS-BSA. Cells were then washed three times 5 min at room temperature in PBS-BSA, and incubated for 1 hr with Cy3 (red fluorescence)-conjugated goat anti-mouse (1/1000, Amersham Pharmacia Biotech) secondary antibodies, diluted in PBS-BSA. After extensive washing in PBS, samples were air dried and mounted in Mowiol. Images were collected on a Leica confocal laser scanning microscope.

[3] = molecular target: T3, THAP1-C3 deletion mutant (amino acids 143-213) (human, UniProt Q9NVV9 143-213); assay: as above
T3 construct: Gal4 fusion, in vitro translation product or GFP fusion according to assay
T3 sequence: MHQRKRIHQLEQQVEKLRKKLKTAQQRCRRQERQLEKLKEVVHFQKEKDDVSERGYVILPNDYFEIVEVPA
From the text: as §1

[4] = molecular target: T4, THAP1-C2 deletion mutant (amino acids 120-213) (human, UniProt Q9NVV9 120-213); assay: as above
T4 construct: Gal4 fusion, in vitro translation product or GFP fusion according to assay
T4 sequence: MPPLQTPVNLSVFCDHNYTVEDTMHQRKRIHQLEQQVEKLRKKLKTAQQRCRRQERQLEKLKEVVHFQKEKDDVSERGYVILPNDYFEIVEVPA
From the text: as §1

[5] = molecular target: T5, THAP1-N2 deletion mutant (amino acids 1-166) (human, UniProt Q9NVV9 1-166); assay: as above
T5 construct: Gal4 fusion, in vitro translation product or GFP fusion according to assay
T5 sequence: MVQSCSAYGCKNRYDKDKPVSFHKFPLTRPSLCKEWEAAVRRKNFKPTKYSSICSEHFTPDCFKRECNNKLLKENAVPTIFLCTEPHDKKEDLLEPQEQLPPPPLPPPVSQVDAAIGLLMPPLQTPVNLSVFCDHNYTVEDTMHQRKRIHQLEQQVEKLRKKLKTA
From the text: as §1

[6] = molecular target: T6, THAP1-N1 deletion mutant (amino acids 1-90) (human, UniProt Q9NVV9 1-90); assay: as above
T6 construct: Gal4 fusion, in vitro translation product or GFP fusion according to assay; also called zinc finger domain of THAP1
T6 sequence: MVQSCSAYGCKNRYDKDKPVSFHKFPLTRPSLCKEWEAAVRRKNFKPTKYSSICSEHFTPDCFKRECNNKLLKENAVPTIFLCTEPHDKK
From the text: as §1

human THAP3, full length = molecular target: T7, human THAP3, full length (human, UniProt Q8WTV1 1-239); assay: yeast two-hybrid, Par4DD bait
T7 construct: Two-hybrid fusion or 35S-labelled in vitro translation product
T7 sequence: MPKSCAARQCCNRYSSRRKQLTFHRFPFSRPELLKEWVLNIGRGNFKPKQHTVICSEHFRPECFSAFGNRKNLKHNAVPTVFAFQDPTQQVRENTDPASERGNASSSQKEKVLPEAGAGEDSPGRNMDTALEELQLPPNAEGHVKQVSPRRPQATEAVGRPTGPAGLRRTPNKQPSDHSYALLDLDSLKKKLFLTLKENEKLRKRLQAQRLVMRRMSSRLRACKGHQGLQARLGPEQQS

human THAP2, full length = molecular target: T8, human THAP2, full length (human, UniProt Q9H0W7 1-228); assay: yeast two-hybrid, Par4DD bait
T8 construct: Two-hybrid fusion or 35S-labelled in vitro translation product
T8 sequence (Q9H0W7 whole entry, the tested form may be a part): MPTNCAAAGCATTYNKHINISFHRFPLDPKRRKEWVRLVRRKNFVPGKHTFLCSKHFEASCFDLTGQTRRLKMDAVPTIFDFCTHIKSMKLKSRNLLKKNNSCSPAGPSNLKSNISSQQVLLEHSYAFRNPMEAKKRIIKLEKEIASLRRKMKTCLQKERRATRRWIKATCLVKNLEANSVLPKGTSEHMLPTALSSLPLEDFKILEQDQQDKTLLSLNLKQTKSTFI

B1: Par4 leucine zipper/death domain (Par4DD, amino acids 250-342) (other)
chain: GFPRYNRDANVSGTLVSSSTLEKKIEDLEKEVVTERQENLRLVRLMQDKEEMIGKLKEEIDLLNRDLDDIEDENEQLKQENKTLLKVVGQLTR
notes: Gal4 fusion in two-hybrid; also called myc-Par4DD
- binding result [1]: no binding
- binding result [2]: binds
- binding result [3]: binds
- binding result [4]: binds
- binding result [5]: no binding
- binding result [6]: no binding
- binding result (human THAP3, full length): binds
- binding result (human THAP2, full length): binds
